Assay results: publication PMC4800440 (Nature Communications, 2016)
“And” between values parts separate entries of the source, which are not always exact repeats. Equal values may be shown once.

B2: TIF2 (623–772), His-tb-TIF2, expressed alone for the complex with ERβ-EF (domain or fragment, human, UniProt Q15596 623-772, looked up)
chain: SERADGQSRLHDSKGQTKLLQLLTTKSDQMEPSPLASSLSDTNKDSTGSLPGSGSTHGTSLKEKHKILHRLLQDSSSPVDLAKLTAEATGKDLSQESSSTAPGSEVTIKQEPVSPKKKENALLRYLLDKDDTKDIGLPEITPKLERLDSK
notes: also called transcriptional intermediary factor 2
B3: human oestrogen receptor beta ligand-binding domain ERβ-EF (255–530) (domain or fragment, UniProt Q92731 255-530, looked up)
chain: VRELLLDALSPEQLVLTLLEAEPPHVLISRPSAPFTEASMMMSLTKLADKELVHMISWAKKIPGFVELSLFDQVRLLESCWMEVLMMGLMWRSIDHPGKLIFAPDLVLDRDEGKCVEGILEIFDMLLATTSRFRELKLQHKEYLCVKAMILLNSSMYPLVTATQDADSSRKLAHLLNAVTDALVWVIAKSGISSQQQSMRLANLLMLLSHVRHASNKGMEHLLNMKCKNVVPVYDLLLEMLNAHVLRGCKSSITGSECSPAEDSKSKEGSQNPQSQ
notes: Estradiol (E2) present throughout; Tag removed with TEV protease; the thioredoxin tag was separated from the complex by gel filtration; also called ERβ LBD; Trx-His-tev-ERβ-EF (255–530); source: E. coli BL21(DE3), with 10 μM estradiol; not shown: thioredoxin, N-terminal, cleaved; His, N-terminal, cleaved

Assays:
[1] = biological target: T1, TIF2 (623–772), (His)6-thrombin-TIF2, co-expressed with GRtm-E (human, UniProt Q15596 623-772); settings: both partners purified
T1 construct: Same limits as m2; here the tags were removed by thrombin cleavage; not shown: His6, N-terminal, cleaved
T1 sequence (looked up): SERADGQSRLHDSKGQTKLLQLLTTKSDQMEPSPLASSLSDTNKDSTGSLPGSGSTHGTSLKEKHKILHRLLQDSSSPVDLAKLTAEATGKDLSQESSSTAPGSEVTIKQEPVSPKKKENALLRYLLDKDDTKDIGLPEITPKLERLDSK

[2] = biological target: B3; test: SEC; settings: partners not purified
[3] = biological target: B2; test: native MS; settings: both partners purified

B1: GR_LBD triple mutant C638A, W557T and W712S (residue 524–777) (domain or fragment, human, UniProt P04150 524-777, looked up)
chain: TLPQLTPTLVSLLEVIEPEVLYAGYDSSVPDSTTRIMTTLNMLGGRQVIAAVKWAKAIPGFRNLHLDDQMTLLQYSWMFLMAFALGWRSYRQSSANLLCFAPDLIINEQRMTLPAMYDQCKHMLYVSSELHRLQVSYEEYLCMKTLLLLSSVPKDGLKSQELFDEIRMTYIKELGKAIVKREGNSSQNSQRFYQLTKLLDSMHEVVENLLNYCFQTFLDKTMSIEFPEMLAEIITNQIPKYSNGNIKKLLFHQK
notes: Dexamethasone present throughout; Tags removed with thrombin; The bioinformatics methods print the cysteine as Cys 636, the production methods as C638A; also called GRtm-E; GRtm LBD; not shown: NusA, N-terminal, cleaved; His6, N-terminal, cleaved
- stoichiometry N [1]: 2 GR per TIF2 and 1 GRtm-E per TIF2

Binder: B2
- binding result [2]: binds

Binder: B3
- stoichiometry N [3]: 2 ERβ-EF per TIF2
